Data on 36 molecules can be found in publication PMC10786891, “Massively parallel profiling of RNA-targeting CRISPR-Cas13d”.

Where a chain is given by its changes, count along the chain named. In names and notes the source's numbering stands.

The labels stand for the following.
B1: target 1 insU 3' of 20,insA 3' of 17 (mixed)
RNA 1: CACCCGUGCAAAAAUGCAGGGGUCUAAAACUGAGCGGAUAACCUCUCUAUGG
RNA 2: GGGAAUGGAUCCACAUCUACGAAUUCGUACCAUUAGAAGAGGUUAUCCGCUCACCGAGAUCGGAAGAGCACACGU
B2: target 1 insG 3' of 4,insA 3' of 3 (mixed)
RNA 1: B1 RNA 1
RNA 2: GGGAAUGGAUCCACAUCUACGAAUUCGUACCAUAGAGAGGUUAUCCGCGUACACCGAGAUCGGAAGAGCACACGU
B3: target 1 C2A,U8A (mixed)
RNA 1: B1 RNA 1
RNA 2: GGGAAUGGAUCCACAUCUACGAAUUCGUACCAUAGAGAGGUUAACCGCUAACCGAGAUCGGAAGAGCACACGU
B4: target 2 MT 5'PFS AGA 3'PFS CUG (mixed)
RNA 1: CACCCGUGCAAAAUUGCAGGGGUCUAAAACCUUCUCCAAAUUGUUUCAUCCU
RNA 2: GGGAAUGGAUCCACAUCUACGAAUUCAGAAGGAUGAAACAAUUUGGAGAAGCUGAGAUCGGAAGAGCACACGU
B5: target 2 MT 5'PFS CUG 3'PFS CGU (mixed)
RNA 1: B4 RNA 1
RNA 2: B4 RNA 2 with A27C, G28U, A29G, U53G, G54U
B6: target 2 MT 5'PFS UUU 3'PFS AUC (mixed)
RNA 1: B4 RNA 1
RNA 2: B4 RNA 2 with A27U, G28U, A29U, C52A, G54C
B7: target 2 MT 5'PFS GUG 3'PFS CAA (mixed)
RNA 1: B4 RNA 1
RNA 2: B4 RNA 2 with A27G, G28U, A29G, U53A, G54A
B8: target 2 MT 5'PFS GUC 3'PFS AAC (mixed)
RNA 1: B4 RNA 1
RNA 2: B4 RNA 2 with A27G, G28U, A29C, C52A, U53A, G54C
B9: target 2 MT 5'PFS UUU 3'PFS AUU (mixed)
RNA 1: B4 RNA 1
RNA 2: B4 RNA 2 with A27U, G28U, A29U, C52A, G54U
B10: target 2 MT 5'PFS GCC 3'PFS CAA (mixed)
RNA 1: B4 RNA 1
RNA 2: B4 RNA 2 with A27G, G28C, A29C, U53A, G54A
B11: target 2 MT 5'PFS GUC 3'PFS AAU (mixed)
RNA 1: B4 RNA 1
RNA 2: B4 RNA 2 with A27G, G28U, A29C, C52A, U53A, G54U
B12: target 2 MT 5'PFS AUG 3'PFS ACC (mixed)
RNA 1: B4 RNA 1
RNA 2: B4 RNA 2 with G28U, A29G, C52A, U53C, G54C
B13: target 2 MT 5'PFS GUC 3'PFS AAA (mixed)
RNA 1: B4 RNA 1
RNA 2: B4 RNA 2 with A27G, G28U, A29C, C52A, U53A, G54A
B14: target 2 MT 5'PFS AUG 3'PFS ACA (mixed)
RNA 1: B4 RNA 1
RNA 2: B4 RNA 2 with G28U, A29G, C52A, U53C, G54A
B15: target 2 MT 5'PFS AUG 3'PFS ACU (mixed)
RNA 1: B4 RNA 1
RNA 2: B4 RNA 2 with G28U, A29G, C52A, U53C, G54U
B16: target 2 MT 5'PFS GCC 3'PFS CAU (mixed)
RNA 1: B4 RNA 1
RNA 2: B4 RNA 2 with A27G, G28C, A29C, U53A, G54U
B17: target 2 MT 5'PFS UCG 3'PFS AAA (mixed)
RNA 1: B4 RNA 1
RNA 2: B4 RNA 2 with A27U, G28C, A29G, C52A, U53A, G54A
B18: target 2 MT 5'PFS UGU 3'PFS AGC (mixed)
RNA 1: B4 RNA 1
RNA 2: B4 RNA 2 with A27U, A29U, C52A, U53G, G54C
B19: target 2 MT 5'PFS UGC 3'PFS GGC (mixed)
RNA 1: B4 RNA 1
RNA 2: B4 RNA 2 with A27U, A29C, C52G, U53G, G54C
B20: target 2 MT 5'PFS GUC 3'PFS AAG (mixed)
RNA 1: B4 RNA 1
RNA 2: B4 RNA 2 with A27G, G28U, A29C, C52A, U53A
B21: target 2 MT 5'PFS UCG 3'PFS AAG (mixed)
RNA 1: B4 RNA 1
RNA 2: B4 RNA 2 with A27U, G28C, A29G, C52A, U53A
B22: target 2 MT 5'PFS UUU 3'PFS AUA (mixed)
RNA 1: B4 RNA 1
RNA 2: B4 RNA 2 with A27U, G28U, A29U, C52A, G54A
B23: target 2 MT 5'PFS UAA 3'PFS CAA (mixed)
RNA 1: B4 RNA 1
RNA 2: B4 RNA 2 with A27U, G28A, U53A, G54A
B24: target 2 MT 5'PFS UCG 3'PFS AAU (mixed)
RNA 1: B4 RNA 1
RNA 2: B4 RNA 2 with A27U, G28C, A29G, C52A, U53A, G54U
B25: target 2 MT 5'PFS GCC 3'PFS CAC (mixed)
RNA 1: B4 RNA 1
RNA 2: B4 RNA 2 with A27G, G28C, A29C, U53A, G54C
B26: target 2 MT 5'PFS GAG 3'PFS UCU (mixed)
RNA 1: B4 RNA 1
RNA 2: B4 RNA 2 with A27G, G28A, A29G, C52U, U53C, G54U
B27: target 2 MT 5'PFS UAA 3'PFS CAC (mixed)
RNA 1: B4 RNA 1
RNA 2: B4 RNA 2 with A27U, G28A, U53A, G54C
B28: target 2 MT 5'PFS GCC 3'PFS CAG (mixed)
RNA 1: B4 RNA 1
RNA 2: B4 RNA 2 with A27G, G28C, A29C, U53A
B29: target 2 MT 5'PFS GAG 3'PFS UCA (mixed)
RNA 1: B4 RNA 1
RNA 2: B4 RNA 2 with A27G, G28A, A29G, C52U, U53C, G54A
B30: target 2 MT 5'PFS GAG 3'PFS UCC (mixed)
RNA 1: B4 RNA 1
RNA 2: B4 RNA 2 with A27G, G28A, A29G, C52U, U53C, G54C
B31: target 2 MT 5'PFS GAG 3'PFS UCG (mixed)
RNA 1: B4 RNA 1
RNA 2: B4 RNA 2 with A27G, G28A, A29G, C52U, U53C
B32: target 2 MT 5'PFS AGA 3'PFS CUC (mixed)
RNA 1: B4 RNA 1
RNA 2: B4 RNA 2 with G54C
B33: target 2 MT 5'PFS AUA 3'PFS AGU (mixed)
RNA 1: B4 RNA 1
RNA 2: B4 RNA 2 with G28U, C52A, U53G, G54U
B34: target 2 MT 5'PFS AGA 3'PFS CUA (mixed)
RNA 1: B4 RNA 1
RNA 2: B4 RNA 2 with G54A
B35: target 2 MT 5'PFS UAA 3'PFS CAU (mixed)
RNA 1: B4 RNA 1
RNA 2: B4 RNA 2 with A27U, G28A, U53A, G54U
B36: target 2 MT 5'PFS UGU 3'PFS AGU (mixed)
RNA 1: B4 RNA 1
RNA 2: B4 RNA 2 with A27U, A29U, C52A, U53G, G54U

This data set has as its target T1, EsCas13d, nuclease-dead (Eubacterium siraeum, UniProt B0MS50, R295A;H300A;R849A;H854A).
T1 sequence: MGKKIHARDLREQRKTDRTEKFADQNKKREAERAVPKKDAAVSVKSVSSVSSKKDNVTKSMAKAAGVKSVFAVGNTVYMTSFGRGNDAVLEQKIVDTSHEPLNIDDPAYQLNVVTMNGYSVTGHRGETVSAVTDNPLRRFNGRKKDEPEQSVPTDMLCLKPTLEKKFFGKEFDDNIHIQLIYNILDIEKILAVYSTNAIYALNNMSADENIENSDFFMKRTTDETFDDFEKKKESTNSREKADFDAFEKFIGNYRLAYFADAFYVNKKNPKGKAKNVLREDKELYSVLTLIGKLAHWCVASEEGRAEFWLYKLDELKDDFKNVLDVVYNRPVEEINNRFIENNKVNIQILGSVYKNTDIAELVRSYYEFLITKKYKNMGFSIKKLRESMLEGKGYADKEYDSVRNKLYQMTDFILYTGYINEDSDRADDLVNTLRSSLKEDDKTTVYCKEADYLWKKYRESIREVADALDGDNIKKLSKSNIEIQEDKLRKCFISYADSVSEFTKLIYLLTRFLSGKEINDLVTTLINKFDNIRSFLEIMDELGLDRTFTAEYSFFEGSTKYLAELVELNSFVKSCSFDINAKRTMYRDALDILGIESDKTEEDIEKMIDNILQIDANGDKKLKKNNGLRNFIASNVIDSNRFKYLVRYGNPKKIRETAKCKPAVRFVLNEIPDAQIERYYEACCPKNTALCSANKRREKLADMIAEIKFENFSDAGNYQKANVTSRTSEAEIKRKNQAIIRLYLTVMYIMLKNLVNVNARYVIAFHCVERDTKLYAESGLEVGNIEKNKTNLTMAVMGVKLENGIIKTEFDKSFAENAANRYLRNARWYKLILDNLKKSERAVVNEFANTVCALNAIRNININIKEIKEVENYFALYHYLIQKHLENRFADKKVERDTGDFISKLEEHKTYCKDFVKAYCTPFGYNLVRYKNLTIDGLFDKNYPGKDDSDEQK
The data set is described as follows: crRNA (strand 1, pre-loaded); Mg2+; 40 mM Tris-HCl pH 7.5, 150 mM NaCl, 6 mM MgCl2, 1 mM DTT, 0.1% Tween-20, 0.2 mg/ml BSA; 25 C; 10 min per concentration, then washed. To be noted: tags: His6-TwinStrep-SUMO cleaved; N-terminal SNAP kept (SNAP-Surface 488); label: 3' end held by stalled T7 RNA polymerase.
On to B1, for which binding was put at a Kd of 27.3 ± 2.4 nM. With B2, the affinity, expressed as Kd, was 6.5 ± 0.5 nM. In the case of B3, binding was characterised by a dissociation constant (Kd) of 19.7 ± 0.8 nM. Against the preceding molecule, the Kd is about 3-fold higher. The same measure for B4: 5.9 ± 1.1 nM; for B5: 3.9 ± 0.6 nM; for B6: 6.9 ± 0.8 nM. In the case of B7, the Kd – broadly, the equilibrium constant for the complex coming apart – came to 6.8 ± 0.6 nM. The molecule B8 gave a Kd of 9.7 ± 1.5 nM.

B9 registered a dissociation constant (Kd) of 9.1 ± 1 nM. With B10 the figure was around 27 nM; with B11, 12.8 ± 2.8 nM; with B12, 18.8 ± 3.1 nM. The molecule B13 registered a Kd of 8.8 ± 1.5 nM. The molecule B14 gave a Kd of 13 ± 3.2 nM. In turn, B15 returned a dissociation constant (Kd) of 11.6 ± 1.9 nM. Molecule B16 registered a dissociation constant Kd of 14 ± 4 nM. B17 had a Kd of 16 ± 5 nM. B18: the Kd was 12.5 ± 2.1 nM.

B19 displayed a Kd of 43 ± 10 nM. The molecule B20 registered a Kd of 16.8 ± 3.5 nM. Compared with the last molecule, the Kd is about 2.6-fold lower. Regarding B21, the dissociation constant (Kd) came out at 32 ± 11 nM. With B22 the figure was 6.5 ± 0.5 nM; with B23, 2.4 ± 0.4 nM; with B24, around 24 nM. For B25, binding was put at a Kd of 13 ± 1.7 nM.

B26 had a dissociation constant (Kd) of 16 ± 2.2 nM. The molecule B27 had a Kd of 5.6 ± 1.8 nM.

As to B28, the dissociation constant (Kd) was 9.4 ± 0.8 nM. In the case of B29, the dissociation constant Kd was 8 ± 0.8 nM. The same measure for B30: 29 ± 5 nM. B31 registered a Kd of 10.7 ± 0.9 nM. The same measure for B32: 11.7 ± 1.9 nM. The molecule B33 showed an equilibrium dissociation constant (Kd) of 26 ± 6 nM. Against the preceding molecule, the Kd is about 2.2-fold higher. Turning to B34, the Kd is 7.6 ± 1.4 nM.

For the molecule B35, the affinity, expressed as Kd, was 4.9 ± 0.8 nM. On to B36, for which the Kd came out at 14.8 ± 2.4 nM. This Kd is about 3-fold higher than that of the molecule before.
